Values of other authors as cited in paper PMC4244080.

Molecular target: insulin receptor (Homo sapiens) (UniProt P06213)
Assay: radioligand binding

Sequence of insulin (P01308 90-110): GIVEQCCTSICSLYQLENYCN
Sequence of UniProt P06213 (P06213 763-1382): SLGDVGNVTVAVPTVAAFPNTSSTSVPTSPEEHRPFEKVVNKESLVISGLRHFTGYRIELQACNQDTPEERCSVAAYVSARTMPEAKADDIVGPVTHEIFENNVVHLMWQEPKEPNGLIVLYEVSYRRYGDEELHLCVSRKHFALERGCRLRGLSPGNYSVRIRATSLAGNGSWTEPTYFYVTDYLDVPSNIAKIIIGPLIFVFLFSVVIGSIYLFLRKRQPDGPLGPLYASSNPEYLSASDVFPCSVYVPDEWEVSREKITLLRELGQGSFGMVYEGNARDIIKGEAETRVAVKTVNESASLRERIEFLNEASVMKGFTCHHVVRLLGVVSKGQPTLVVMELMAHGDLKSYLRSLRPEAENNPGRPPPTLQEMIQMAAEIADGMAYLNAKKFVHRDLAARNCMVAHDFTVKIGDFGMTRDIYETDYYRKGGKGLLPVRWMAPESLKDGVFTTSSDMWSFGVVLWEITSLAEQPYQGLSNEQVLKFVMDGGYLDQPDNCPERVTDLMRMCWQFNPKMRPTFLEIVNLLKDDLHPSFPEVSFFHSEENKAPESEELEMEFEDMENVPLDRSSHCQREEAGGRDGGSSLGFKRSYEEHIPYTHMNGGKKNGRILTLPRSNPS

insulin (from UniProt P01308)
Kd: 0.3 nM
